In a protein production outcome set (Wang et al. 2014):

Assay: label from the status in PepcDB records

Row | Sequence | protein production
1 | MSTDSDTTPDTEEAREQLIDLAADFYDQFADGEVPTMTIPTRTKSNIVFDEDEQVWVYGDRNSTRSAKTISGAEKILKAVYTIDFLSQQLEEDRSSTLRELYYLSESWDLDEAQFNTQDESNNLIEDLEIVSDVKREDFHMRPEESGAKVMGPLLLREQTNRGDREIHCQDDVGQGGYQIPNNPDTIEFLDNDAKFVLCVETGGMRDRLVENGFDDEYDALVVHLGGQPARATRRLIKRLHDELDLPVTVFTDGDPWSYRIFGSVSYGSIKSAHLSEYLATPEAQFIGIRPEDIVEYELPTDPLSDSDVNALESELEDPRFQTDFWEEQIELQLDINKKAEQQALASRGLDFVTETYLPERLDEMGIL | failed
2 | MSLTQIVNPIIYPSRTIPRRFTAISPFKTLSPQFSRHPPHALSRRLFLPSVSSIWDAITGGGDSNPREAIAAVRRGMQLFRQGDVAGSVAEFDRAIILDPRQKAYLWQRGLSLYYVDRFEEGAEQFRIDVAQNPNDTEESIWCFICEARLHGVDVARTQFLEVGRDSRPVMREAYNLFKNGGDPEKLVNDFSSGQASEYFYASLYAGLYYEAEGKSENAKFHLTAACGSPYGQRSDDYMASLAKVHCLCRNWSSGIL | failed
3 | MEHIEIRVSATGSMSSFHALCSFHQWPINVACSCWLSHCYRIYSLYPPQLVSCSDRLSTSGNTNAGAEFVTE | failed
4 | MGHHHHHHSHMSYKPNLAAHMPAAALNAAGSVHSPSTSMATSSQYRQLLSDYGPPSLGYTQGTGNSQVPQSKYAELLAIIEELGKEIRPTYAGSKSAMERLKRGIIHARGLVRECLAETERNARS | failed
5 | MIIDDIINKIKSSNKIAISFHISPDGDSIGSSLGLLNGLRSIGKETYILSKEVVPESFEFLNFAREIDGNHFEVEDNTDLLITLDCGNIERLNFDTSDMISEDKKYTVINIDHHVTNDSFGDLNYINTKAASVGEIVYDLLSKMNISIDRTIAACLYTSILTDTGSFRFSNTTLNTHVVAGNLISTGLDFSEIHRKIFDNKKFEALKLQALVLNDMYLTFNNKLCVMKVTHDFIEKANAEDVDTGDLVSLGLKVNTAEVCMLLKEKDDCIKVSLRSKSYVDVRKIAEKFGGGGHIRAAGLSINSNILDAEKMILSEIQGELLEHHHHHH | failed
6 | MAAMQWCGAMTRRIMMTQRTSAALNCSARYSSLSPACAAPAVSEMDLCGRGDKKTKKGKRFKGSYGNSRGKKQKMIERIKDKLELPRSTPWPLPFKLI | not failed
7 | EAHRVLFGFVPETKEELQVMPGNIVFVLKKGNDNWATVMFNGQKGLVPCNYLEPV | not failed
8 | MEWFDKISEFMEGLPEWLQAHPRYGYLIVAGILLLWLVGIVCGWRWTYSRPGSWEGNFWLGTLGERSYRFWLGLIVAAATGCALLLFSVTG | failed
9 | MIVEKVLIVDPIDGEFTGDVEIEEGKIVKVEKRECIPRGVLMPGFVDPHIHGVVGADTMNCDFSEMEEFLYSQGVTTFLATTVSTSLEKMKEILRKARDYILENPSTSLLGVHLEGPYISKEKKGAHSEKHIRPPSERELSEIDSPAKMLTFAPEIESSELLLRLVKRDIVLSAGHSIATFEEFMKFYKEGVKRITHFPNGLKPLHHREIGITGAGLLLDDVKLELICDGVHLSREMVKLVYKVKKANGIVLVTDSISAAGLKDGTTTLGDLVVKVKDGVPRLEDGTLAGSTLFFSQAVKNFRKFTGCSITELAKVSSYNSCVELGLDDRGRIAEGTRADLVLLDEDLNVVMTIKEGEVVFRSR | not failed
10 | MSRVFVIGAAGKVGQRLIKKLGDGGHEVIALHRKEEQSVLIKAAGALPLLANLVEMDAAALSSAMAGSDVVVFTAGAGGAGIELTNAIDGEGLKTSVAAAELAGVRRFLLVSAFPEAARGTDTSAGFENYMRVKKHADVCLASSELDWVILRPGTLVDSAGSGQVRAGLAIPYGDIPRDDVAAFLAALVDQPEISRQIIELTEGTTPVELAIKALGTR | failed
11 | MNIVIVVFSTDEETLRKFKDIIKKNGFKVRTVRSPQELKDSIEELVKKYNATIVVVVVDDKEWAEKAIRFVKSLGAQVLIIIYDQDQNRLEEFSREVRRRGFEVRTVTSPDDFKKSLERLIREVGSLEHHHHHH | not failed
12 | MSLYKLYSMQRSGNSYKVRLALALLDAPYRAVEVDILRGESRTPDFLAKNPSGQVPLLETAPGRYLAESNAILWYLAVGTSLAPDTRMDRAEALQWMFFEQHALEPNIGSAYFWLCLVKGGRDLQTHALEDWLERGYAALQVMENHLKTNDYFAAGQLTIADIALYGYTHVADQCDFDLSTFPAVNAWLRRVEQTPGFITMDWTPETIAADPTSFAAEGHHHHHH | not failed
13 | MDYLSQEEDLQFFDANEEMMALNPSGFGFDVWNDSPGSVVERRRKFLEWMGVEEEGRVETKDSVSGSSVESCFDGGEENSVEAEERSGECSSSSSEVSLSGSSVEVSEELSLRVDRNVGGCDVTRRQSSSMASCSSSRYCQVKETEKQRNIAGLVTSFKKGWLSRLRSMGCTADTNIESGGRMRASSGYGDVISRVKVKHCKKQAKELSALYQSQDIKAHDGAILAMKFSNDGKFLASSGEDGIVRVWKVVEDKKSRLRRDCLNEIDPSCMYFEVNDLSQLKPVLVNEEKPKKTTESFRKTSDSACVVFPPKVFRIMEKPLYEFRGHTGEVLDISWSKDNYLLSASMDKTVRLWKVGSNDCLGVFAHNSYVTSVQFNPVNENYFMSGSIDGKVRIWNISGCSVVDWADLKDIISAVCYRPDGQGGIIGSLNGSCRFFNMSGEFLELDSQIHLHNKKKSSNKRITGFQFLPQEPTKVLVVSADSKVRILQGNNVVRKYKGVCKTRSLTSASLTSDGKHIVSACEDSNVYIWSNDEESETKKIRSFERFSANASVAATWCGFSDHNTTLPFSSPSCLSHNEGFVPGSISKGSATWPEENLPANPLSTSAMNASHYKFLKSSYQRASSSLSWGMVIVTGGWDGQIRTFQNYGLPVTT | failed
